From article PMC8390433

Target: Arc (Activity-regulated cytoskeleton-associated protein, Arg3.1) (UniProt Q9WV31)
Test: dynamic light scattering, 20°C and 30°C
Conditions: reference: wild type Arc; sites T278

- other: DLS large-species diameter (share) at 30°C: stronger; reference 333.00± 68.4 (74%)
Substance: Arc (Activity-regulated cytoskeleton-associated protein, Arg3.1) (from UniProt Q9WV31) T278D
